What was measured:
[1] = target: HIV-1 NL4-3 wild-type protease (PR) tagged with CFP or YFP (HIV-1 (NL4-3)); experiment: FRET or BRET; as a1, cells cultured with 10 nM DRV added with the transfection
[2] = target: HIV-1 NL4-3 wild-type protease (PR) tagged with CFP or YFP (HIV-1 (NL4-3)); experiment: FRET or BRET; FRET-based HIV-1 expression assay; COS-7 cells cotransfected with CFP- and YFP-tagged protease clones, 72 h, no DRV; acceptor photobleaching, CFP^A/B ratio > 1 means dimerization; confocal microscope, room temperature

HIV-1 NL4-3 wild-type protease (PR) tagged with CFP or YFP (enzyme)
CFP^A/B ratio [1]: 1.04
CFP^A/B ratio [2]: 1.07

— paper PMC5844992
